# Data as given in US20160257732A1 (published 2016).
# Positions count from the first letter of the chain named. Values joined by “and” are separate entries in the source; they are usually repeats but may differ in a detail not shown here. Equal values may be shown once. Read-outs that look alike come from different tables or passages of the source.
# B1: Antibody 5 (antibody, V domains shown)
# VH: QVQLQQSGPGLVKPSQTLSLTCAISGDRVSSNSAVWNWIRQSPSRGLEWLGRTYYRSKWYYDYAESVKSRIVIDPDTSKNQVSLQLNSVTPEDSAIYYCARGGHITVFGLNIDAYDIWGQGAMVTVSS
# VL: DIQMTQSPSSLSASVGDRVTISCRAQSLSSYLHWYQQKPGQPPKLLIYAATTLQSGVPSRFSGSGSGTDFTLTISTFQAEDVATYYCQQSRTFGQGTKVEIK
# B2: Antibody 6 (antibody, V domains shown)
# VH: B1 VH with V107E
# VL: B1 VL
# B3: Antibody 10 (antibody, V domains shown)
# VH: QVQLQQSGPGLVKPSQTLSLTCAISGDSVSSNSATWNWIRQSPSRGLEWLGRTYYRSKWYNDYADFLKRRITINPDTSNNEVSLRLTSVTPDDTALYYCARGGHITVFGVNIDAFDVWGQGTMVTVSS
# VL: DIQMTQSPSSLSASVGDRITISCRTSQSLRSYLHWYQQKPGKAPKLLIYASSTLQSGVPSRFSGSGSGTDFTLTISNLQPEDFATYYCQLSRTFGQGTKVEIK
# B4: Antibody 15 (antibody, V domains shown)
# VH: QVQLQQSGPGLVKPSQTLSLTCAISGDSVSSNNAVWNWIRQSPSRGLEWLGRTYYRSKWYNDYAESVKSRITINPDTSKNQFSLQLNSVTPEDTAVYYCARSGHITVFGVNVDAFDMWGQGTTVTVSS
# VL: B3 VL with I19V, S22T, R30S, L33T, S51A, T53S, L54R, Q55G, N77S, L90Q
# Columns and labels:
# Experiment in all cases: cell-based or functional assay
# [1] = target: T1, HA of ca A/chicken/Hong Kong/G9/97 (H9N2) (influenza A virus)
# [2] = target: HA of ca A/Perth/16/09 (H3N2) (influenza A virus)
# [3] = target: HA of A/New Jersey/8/76 (H1N1) (influenza A virus)
# [4] = target: HA of A/Wyoming/03/03 (H3N2) (influenza A virus)
# [5] = target: HA of A/Wisconsin/67/05 (H3N2) (influenza A virus)
# [6] = target: HA of ca A/Texas/36/91 (H1N1) (influenza A virus)
# [7] = target: T2, HA of ca A/Brit. Columbia/CN-6/04 (H7N3-LP) (influenza A virus)
# [8] = target: HA of A/Hong Kong/8/68 (H3N2) (influenza A virus)
# [9] = target: HA of ca A/Hong Kong/213/03 (H5N1) (influenza A virus)
# [10] = target: HA of ca A/New Caledonia/20/99 (H1N1) (influenza A virus)
# [11] = target: HA of A/Kawasaki/9/86 (H1N1) (influenza A virus)
# [12] = target: HA of ca A/Panama/2007/99 (H3N2) (influenza A virus)
# [13] = target: HA of ca A/Beijing/262/95 (H1N1) (influenza A virus)
# [14] = target: HA of A/Fort Monmouth/1/47 (H1N1) (influenza A virus)
# [15] = target: HA of ca A/Vietnam/1203/04 (H5N1) (influenza A virus)
# [16] = target: HA of ca A/Netherlands/219/03 (H7N7) (influenza A virus)
# [17] = target: HA of A/Victoria/3/75 (H3N2) (influenza A virus)
# [18] = target: HA of ca A/teal/Hong Kong/W312/97 (H6N1) (influenza A virus)
# [19] = target: HA of ca A/swine/Missouri/06 (H2N3) (influenza A virus)
# [20] = target: HA of ca A/Sydney/5/97 (H3N2) (influenza A virus)
# [21] = target: HA of swine-origin A/Minnesota/11/2010 H3N2 virus (influenza A virus)
# [22] = target: T1, HA of ca A/chicken/Hong Kong/G9/97 …; remark: listed apart in the source
# [23] = target: HA of ca A/Perth/16/09 (H3N2) (influenza A virus); remark: listed apart in the source
# [24] = target: HA of ca A/Japan/57 (H2N2) (influenza A virus)
# [25] = target: HA of A/New Jersey/8/76 (H1N1) (influenza A virus); remark: listed apart in the source
# [26] = target: HA of A/Wisconsin/67/05 (H3N2) (influenza A virus); remark: listed apart in the source
# [27] = target: HA of ca A/Texas/36/91 (H1N1) (influenza A virus); remark: listed apart in the source
# [28] = target: T2, HA of ca A/Brit. Columbia/CN-6/04 …; remark: listed apart in the source
# [29] = target: HA of ca A/mallard/Alberta/89/85 (H6N2) (influenza A virus)
# [30] = target: HA of A/Hong Kong/8/68 (H3N2) (influenza A virus); remark: listed apart in the source
# [31] = target: HA of ca A/Hong Kong/213/03 (H5N1) (influenza A virus); remark: listed apart in the source
# [32] = target: HA of ca A/New Caledonia/20/99 (H1N1) (influenza A virus); remark: listed apart in the source
# [33] = target: HA of A/Kawasaki/9/86 (H1N1) (influenza A virus); remark: listed apart in the source
# [34] = target: HA of ca A/Panama/2007/99 (H3N2) (influenza A virus); remark: listed apart in the source
# [35] = target: HA of ca A/Beijing/262/95 (H1N1) (influenza A virus); remark: listed apart in the source
# [36] = target: HA of A/Fort Monmouth/1/47 (H1N1) (influenza A virus); remark: listed apart in the source
# [37] = target: HA of virus H1-BS10
# [38] = target: HA of ca A/Vietnam/1203/04 (H5N1) (influenza A virus); remark: listed apart in the source
# [39] = target: HA of ca A/Netherlands/219/03 (H7N7) (influenza A virus); remark: listed apart in the source
# [40] = target: HA of A/Victoria/3/75 (H3N2) (influenza A virus); remark: listed apart in the source
# [41] = target: HA of ca A/teal/Hong Kong/W312/97 (H6N1) (influenza A virus); remark: listed apart in the source
# [42] = target: HA of A/Victoria/361/11 (H3N2) (influenza A virus)
# [43] = target: HA of ca A/swine/Missouri/06 (H2N3) (influenza A virus); remark: listed apart in the source
# [44] = target: HA of ca A/Sydney/5/97 (H3N2) (influenza A virus); remark: listed apart in the source
binder,measurement,setting,value
B1,"Neutralization IC50, H9-HK97",[1],2.43 µg/mL
same,"Neutralization IC50, H3-Perth09",[2],2.22 µg/mL
same,"Neutralization IC50, H1-NJ76",[3],1.64 µg/mL
same,"Neutralization IC50, H3-Wy03",[4],0.77 µg/mL
same,"Neutralization IC50, H3-WI05",[5],2.83 µg/mL
same,"Neutralization IC50, H1-TX91",[6],0.76 µg/mL
same,"Neutralization IC50, H7-BC04",[7],5.35 µg/mL
same,"Neutralization IC50, H3-HK68",[8],0.39 µg/mL
same,"Neutralization IC50, H5-HK03",[9],1.18 µg/mL
same,"Neutralization IC50, H1-Ncal99",[10],0.85 µg/mL
same,"Neutralization IC50, H1-Kaw86",[11],1.01 µg/mL
same,"Neutralization IC50, H3-Pa99",[12],16.7 µg/mL
same,"Neutralization IC50, H1-BJ95",[13],5.06 µg/mL
same,"Neutralization IC50, H1-FM47",[14],0.86 µg/mL
same,"Neutralization IC50, H5-VM04",[15],2.6 µg/mL
same,"Neutralization IC50, H7-NLD03",[16],4.14 µg/mL
same,"Neutralization IC50, H3-Vic75",[17],0.57 µg/mL
same,"Neutralization IC50, H6-HK97",[18],2.27 µg/mL
same,"Neutralization IC50, H2-MO06",[19],2.38 µg/mL
same,"Neutralization IC50, H3-Syd97",[20],3.03 µg/mL
B2,"Neutralization IC50, H9-HK97",[1],16.5 µg/mL
same,"Neutralization IC50, H3-Perth09",[2],5.03 µg/mL
same,"Neutralization IC50, H1-NJ76",[3],2.6 µg/mL
same,"Neutralization IC50, H3-Wy03",[4],4.7 µg/mL
same,"Neutralization IC50, H3-WI05",[5],6.76 µg/mL
same,"Neutralization IC50, H1-TX91",[6],2.2 µg/mL
same,"Neutralization IC50, H7-BC04",[7],> 50 µg/mL
same,"Neutralization IC50, H3-HK68",[8],2.04 µg/mL
same,"Neutralization IC50, H5-HK03",[9],10.4 µg/mL
same,"Neutralization IC50, H1-Ncal99",[10],3 µg/mL
same,"Neutralization IC50, H1-Kaw86",[11],3.51 µg/mL
same,"Neutralization IC50, H3-Pa99",[12],25.8 µg/mL
same,"Neutralization IC50, H1-BJ95",[13],20.9 µg/mL
same,"Neutralization IC50, H1-FM47",[14],3.04 µg/mL
same,"Neutralization IC50, H5-VM04",[15],8.87 µg/mL
same,"Neutralization IC50, H7-NLD03",[16],> 50 µg/mL
same,"Neutralization IC50, H3-Vic75",[17],1.09 µg/mL
same,"Neutralization IC50, H6-HK97",[18],3.23 µg/mL
same,"Neutralization IC50, H2-MO06",[19],2.9 µg/mL
same,"Neutralization IC50, H3-Syd97",[20],6.54 µg/mL
B3,"Neutralization IC50, H9-HK97",[1],1.76 µg/mL
same,"Neutralization IC50, H3-Perth09",[2],2.56 µg/mL
same,"Neutralization IC50, H1-NJ76",[3],0.15 µg/mL
same,"Neutralization IC50, H3-Wy03",[4],1.52 µg/mL
same,"Neutralization IC50, H3-WI05",[5],4.46 µg/mL
same,"Neutralization IC50, H1-TX91",[6],0.48 µg/mL
same,"Neutralization IC50, H7-BC04",[7],3.59 µg/mL
same,"Neutralization IC50, H3-HK68",[8],0.85 µg/mL
same,"Neutralization IC50, H5-HK03",[9],1.6 µg/mL
same,"Neutralization IC50, H1-Ncal99",[10],1.26 µg/mL
same,"Neutralization IC50, H1-Kaw86",[11],1.62 µg/mL
same,"Neutralization IC50, H3-Pa99",[12],18.7 µg/mL
same,"Neutralization IC50, H1-BJ95",[13],4.46 µg/mL
same,"Neutralization IC50, H1-FM47",[14],1.11 µg/mL
same,"Neutralization IC50, H5-VM04",[15],2.21 µg/mL
same,"Neutralization IC50, H7-NLD03",[16],3.8 µg/mL
same,"Neutralization IC50, H3-Vic75",[17],0.91 µg/mL
same,"Neutralization IC50, H6-HK97",[18],1.05 µg/mL
same,"Neutralization IC50, H2-MO06",[19],1.04 µg/mL
same,"Neutralization IC50, H3-Syd97",[20],9.29 µg/mL
B4,"Neutralizing activity IC50, swine-origin A/Minnesota/11/2010",[21],0.9 µg/mL and 2.7 µg/mL
same,"Neutralization IC50, H9-HK97",[22],0.35 µg/mL
same,"Neutralization IC50, H3-Perth09",[23],0.5 µg/mL
same,"Neutralization IC50, H2-JP57",[24],0.33 µg/mL
same,"Neutralization IC50, H1-NJ76",[25],0.25 µg/mL
same,"Neutralization IC50, H3-WI05",[26],1.3 µg/mL
same,"Neutralization IC50, H1-TX91",[27],0.13 µg/mL
same,"Neutralization IC50, H7-BC04",[28],1.25 µg/mL
same,"Neutralization IC50, H6-AB85",[29],0.19 µg/mL
same,"Neutralization IC50, H3-HK68",[30],0.5 µg/mL
same,"Neutralization IC50, H5-HK03",[31],0.05 µg/mL
same,"Neutralization IC50, H1-Ncal99",[32],0.79 µg/mL
same,"Neutralization IC50, H1-Kaw86",[33],0.48 µg/mL
same,"Neutralization IC50, H3-Pa99",[34],3.39 µg/mL
same,"Neutralization IC50, H1-BJ95",[35],1.81 µg/mL
same,"Neutralization IC50, H1-FM47",[36],0.35 µg/mL
same,"Neutralization IC50, H1-BS10",[37],1.89 µg/mL
same,"Neutralization IC50, H5-VM04",[38],0.28 µg/mL
same,"Neutralization IC50, H7-NLD03",[39],1.3 µg/mL
same,"Neutralization IC50, H3-Vic75",[40],0.35 µg/mL
same,"Neutralization IC50, H6-HK97",[41],0.33 µg/mL
same,"Neutralization IC50, H3-VC11",[42],1.29 µg/mL
same,"Neutralization IC50, H2-MO06",[43],0.83 µg/mL
same,"Neutralization IC50, H3-Syd97",[44],1.79 µg/mL
